Laboratory results reported in patent US20200024322A1 (Eli Lilly, published 2020).
Where a chain is given by its changes, count along the chain named. Numbered stars: 1 amine (or outer) side, 2 acyl side, 3 side chain; on linkers, the order of the positions; unused ones are H or OH. Square brackets hold non-standard residues; d marks the D form. Side chains are listed from the residue outwards. Ends that are not written are not given here. * marks the point of attachment. C20 diacid = O=C(O)CCCCCCCCCCCCCCCCCCC(=O)*; αMePhe(2-F) = C[C@](N)(Cc1ccccc1F)C(=O)O; γGlu = O=C(O)[C@H](CCC(=O)[*:2])N[*:1]; Desaminohistidyl = O=C(CCc1c[nH]cn1)*; αMeF = C[C@](N)(Cc1ccccc1)C(=O)O; αMeL = CC(C)C[C@](C)(N)C(=O)O; cTA = not defined here; AEEA = NCCOCCOCC(=O)O; Aib = CC(C)(N)C(=O)O

B1: Example 122 (peptide)
peptide: Y[Aib]EGT[αMeF]TSDYSI[αMeL]LDEK([AEEA-AEEA-γGlu-C20 diacid])AQQAFIEYLIE[Aib]GPSSGAPPPS-NH2
modifications: N-terminus assumed
SMILES: CC[C@H](C)[C@H](NC(=O)[C@H](Cc1ccccc1)NC(=O)[C@H](C)NC(=O)[C@H](CCC(N)=O)NC(=O)[C@H](CCC(N)=O)NC(=O)[C@H](C)NC(=O)[C@H](CCCCNC(=O)COCCOCCNC(=O)COCCOCCNC(=O)CC[C@H](NC(=O)CCCCCCCCCCCCCCCCCCC(=O)O)C(=O)O)NC(=O)[C@H](CCC(=O)O)NC(=O)[C@H](CC(=O)O)NC(=O)[C@H](CC(C)C)NC(=O)[C@](C)(CC(C)C)NC(=O)[C@@H](NC(=O)[C@H](CO)NC(=O)[C@H](Cc1ccc(O)cc1)NC(=O)[C@H](CC(=O)O)NC(=O)[C@H](CO)NC(=O)[C@@H](NC(=O)[C@](C)(Cc1ccccc1)NC(=O)[C@@H](NC(=O)CNC(=O)[C@H](CCC(=O)O)NC(=O)C(C)(C)NC(=O)[C@@H](N)Cc1ccc(O)cc1)[C@@H](C)O)[C@@H](C)O)[C@@H](C)CC)C(=O)N[C@@H](CCC(=O)O)C(=O)N[C@@H](Cc1ccc(O)cc1)C(=O)N[C@@H](CC(C)C)C(=O)N[C@H](C(=O)N[C@@H](CCC(=O)O)C(=O)NC(C)(C)C(=O)NCC(=O)N1CCC[C@H]1C(=O)N[C@@H](CO)C(=O)N[C@@H](CO)C(=O)NCC(=O)N[C@@H](C)C(=O)N1CCC[C@H]1C(=O)N1CCC[C@H]1C(=O)N1CCC[C@H]1C(=O)N[C@@H](CO)C(N)=O)[C@@H](C)CC
B2: Example 104 (peptide)
peptide: YXEGTXTSDYSIXLDEKAQXEFIEYLIEGG
modifications: Aib2; αMeF(2F)6; αMeL13; K17((2-[2-(2-Amino-ethoxy)-ethoxy]-acetyl)2-(γ-Glu)-CO-(CH2)16-CO2H); Aib20; C-terminal NH2
B3: Example 117 (peptide)
peptide: Y[Aib]EGT[αMeF]TSDYSI[Aib]LDEK([AEEA-AEEA-γGlu-C20 diacid])AQ[Aib]AFIEYLIEGGPSSGAPPPS-NH2
modifications: N-terminus assumed
SMILES: CC[C@H](C)[C@H](NC(=O)[C@H](CC(C)C)NC(=O)[C@H](Cc1ccc(O)cc1)NC(=O)[C@H](CCC(=O)O)NC(=O)[C@@H](NC(=O)[C@H](Cc1ccccc1)NC(=O)[C@H](C)NC(=O)C(C)(C)NC(=O)[C@H](CCC(N)=O)NC(=O)[C@H](C)NC(=O)[C@H](CCCCNC(=O)COCCOCCNC(=O)COCCOCCNC(=O)CC[C@H](NC(=O)CCCCCCCCCCCCCCCCCCC(=O)O)C(=O)O)NC(=O)[C@H](CCC(=O)O)NC(=O)[C@H](CC(=O)O)NC(=O)[C@H](CC(C)C)NC(=O)C(C)(C)NC(=O)[C@@H](NC(=O)[C@H](CO)NC(=O)[C@H](Cc1ccc(O)cc1)NC(=O)[C@H](CC(=O)O)NC(=O)[C@H](CO)NC(=O)[C@@H](NC(=O)[C@](C)(Cc1ccccc1)NC(=O)[C@@H](NC(=O)CNC(=O)[C@H](CCC(=O)O)NC(=O)C(C)(C)NC(=O)[C@@H](N)Cc1ccc(O)cc1)[C@@H](C)O)[C@@H](C)O)[C@@H](C)CC)[C@@H](C)CC)C(=O)N[C@@H](CCC(=O)O)C(=O)NCC(=O)NCC(=O)N1CCC[C@H]1C(=O)N[C@@H](CO)C(=O)N[C@@H](CO)C(=O)NCC(=O)N[C@@H](C)C(=O)N1CCC[C@H]1C(=O)N1CCC[C@H]1C(=O)N1CCC[C@H]1C(=O)N[C@@H](CO)C(N)=O
B4: Example 121 (peptide)
peptide: Y[Aib]EGT[αMeF]TSDYSI[αMeL]LDEK([AEEA-AEEA-γGlu-C20 diacid])AQQAFIEYLIEGGPSSGAPPPS-NH2
modifications: N-terminus assumed
SMILES: CC[C@H](C)[C@H](NC(=O)[C@H](CC(C)C)NC(=O)[C@H](Cc1ccc(O)cc1)NC(=O)[C@H](CCC(=O)O)NC(=O)[C@@H](NC(=O)[C@H](Cc1ccccc1)NC(=O)[C@H](C)NC(=O)[C@H](CCC(N)=O)NC(=O)[C@H](CCC(N)=O)NC(=O)[C@H](C)NC(=O)[C@H](CCCCNC(=O)COCCOCCNC(=O)COCCOCCNC(=O)CC[C@H](NC(=O)CCCCCCCCCCCCCCCCCCC(=O)O)C(=O)O)NC(=O)[C@H](CCC(=O)O)NC(=O)[C@H](CC(=O)O)NC(=O)[C@H](CC(C)C)NC(=O)[C@](C)(CC(C)C)NC(=O)[C@@H](NC(=O)[C@H](CO)NC(=O)[C@H](Cc1ccc(O)cc1)NC(=O)[C@H](CC(=O)O)NC(=O)[C@H](CO)NC(=O)[C@@H](NC(=O)[C@](C)(Cc1ccccc1)NC(=O)[C@@H](NC(=O)CNC(=O)[C@H](CCC(=O)O)NC(=O)C(C)(C)NC(=O)[C@@H](N)Cc1ccc(O)cc1)[C@@H](C)O)[C@@H](C)O)[C@@H](C)CC)[C@@H](C)CC)C(=O)N[C@@H](CCC(=O)O)C(=O)NCC(=O)NCC(=O)N1CCC[C@H]1C(=O)N[C@@H](CO)C(=O)N[C@@H](CO)C(=O)NCC(=O)N[C@@H](C)C(=O)N1CCC[C@H]1C(=O)N1CCC[C@H]1C(=O)N1CCC[C@H]1C(=O)N[C@@H](CO)C(N)=O
B5: Example 101 (peptide)
peptide: Y[Aib]EGT[αMePhe(2-F)]TSDYSI[Aib]LDEK([AEEA-AEEA-γGlu-C20 diacid])AQ[Aib]AFIEYLIEGG-NH2
modifications: N-terminus assumed
SMILES: CC[C@H](C)[C@H](NC(=O)[C@H](CC(C)C)NC(=O)[C@H](Cc1ccc(O)cc1)NC(=O)[C@H](CCC(=O)O)NC(=O)[C@@H](NC(=O)[C@H](Cc1ccccc1)NC(=O)[C@H](C)NC(=O)C(C)(C)NC(=O)[C@H](CCC(N)=O)NC(=O)[C@H](C)NC(=O)[C@H](CCCCNC(=O)COCCOCCNC(=O)COCCOCCNC(=O)CC[C@H](NC(=O)CCCCCCCCCCCCCCCCCCC(=O)O)C(=O)O)NC(=O)[C@H](CCC(=O)O)NC(=O)[C@H](CC(=O)O)NC(=O)[C@H](CC(C)C)NC(=O)C(C)(C)NC(=O)[C@@H](NC(=O)[C@H](CO)NC(=O)[C@H](Cc1ccc(O)cc1)NC(=O)[C@H](CC(=O)O)NC(=O)[C@H](CO)NC(=O)[C@@H](NC(=O)[C@](C)(Cc1ccccc1F)NC(=O)[C@@H](NC(=O)CNC(=O)[C@H](CCC(=O)O)NC(=O)C(C)(C)NC(=O)[C@@H](N)Cc1ccc(O)cc1)[C@@H](C)O)[C@@H](C)O)[C@@H](C)CC)[C@@H](C)CC)C(=O)N[C@@H](CCC(=O)O)C(=O)NCC(=O)NCC(N)=O
B6: Example 123 (peptide)
peptide: YXEGTXTSDYSIXLDKKAQXEFIEYLIEGGPSSG
modifications: Aib2; αMeF6; αMeL13; K17((2-[2-(2-Amino-ethoxy)-ethoxy]-acetyl)2-(γ-Glu)-CO-(CH2)18-CO2H); Aib20; C-terminal NH2
B7: Example 124 (peptide)
peptide: B6 peptide with K16E
modifications: Aib2; αMeF6; αMeL13; K17((2-[2-(2-Amino-ethoxy)-ethoxy]-acetyl)2-(γ-Glu)-CO-(CH2)18-CO2H); Aib20; C-terminal NH2
B8: Example 106 (peptide)
peptide: [Desaminohistidyl][Aib]EGTFTSDYSILLDKK([AEEA-AEEA-γGlu-C20 diacid])AQ[Aib]AFIEYLIEGGPSSGAPPPS-NH2
SMILES: CC[C@H](C)[C@H](NC(=O)[C@H](CC(C)C)NC(=O)[C@H](Cc1ccc(O)cc1)NC(=O)[C@H](CCC(=O)O)NC(=O)[C@@H](NC(=O)[C@H](Cc1ccccc1)NC(=O)[C@H](C)NC(=O)C(C)(C)NC(=O)[C@H](CCC(N)=O)NC(=O)[C@H](C)NC(=O)[C@H](CCCCNC(=O)COCCOCCNC(=O)COCCOCCNC(=O)CC[C@H](NC(=O)CCCCCCCCCCCCCCCCCCC(=O)O)C(=O)O)NC(=O)[C@H](CCCCN)NC(=O)[C@H](CC(=O)O)NC(=O)[C@H](CC(C)C)NC(=O)[C@H](CC(C)C)NC(=O)[C@@H](NC(=O)[C@H](CO)NC(=O)[C@H](Cc1ccc(O)cc1)NC(=O)[C@H](CC(=O)O)NC(=O)[C@H](CO)NC(=O)[C@@H](NC(=O)[C@H](Cc1ccccc1)NC(=O)[C@@H](NC(=O)CNC(=O)[C@H](CCC(=O)O)NC(=O)C(C)(C)NC(=O)CCc1c[nH]cn1)[C@@H](C)O)[C@@H](C)O)[C@@H](C)CC)[C@@H](C)CC)C(=O)N[C@@H](CCC(=O)O)C(=O)NCC(=O)NCC(=O)N1CCC[C@H]1C(=O)N[C@@H](CO)C(=O)N[C@@H](CO)C(=O)NCC(=O)N[C@@H](C)C(=O)N1CCC[C@H]1C(=O)N1CCC[C@H]1C(=O)N1CCC[C@H]1C(=O)N[C@@H](CO)C(N)=O
B9: Example 107 (peptide)
peptide: XXEGTFTSDYSILLDKKAQXAFIEYLIEGGPSSGAPPPS
modifications: DesTyr1; Aib2; K17((2-[2-(2-Amino-ethoxy)-ethoxy]-acetyl)2-(γ-Glu)-CO-(CH2)18-CO2H); Aib20; C-terminal NH2

Columns and labels:
human glucagon receptor = target: T1, human glucagon receptor (human, UniProt P47871 26-477); test: SPA, [125I]-Gcg displacement, hGcgR membranes
T1 construct: whole, on cells; Used as crude membranes of stably transfected HEK293 cells; also called hGcgR; hGLcgR

human GLP-1 receptor = target: T2, human GLP-1 receptor (human, UniProt P43220 24-463); test: SPA, [125I]-GLP-1 displacement, hGLP-1R membranes
T2 construct: whole, on cells; Used as crude membranes of stably transfected HEK293 cells; also called hGLP1R; hGLP-1R

human GIP receptor = target: T3, human GIP receptor (human, UniProt P48546 22-466); test: SPA, [125I]-GIP displacement, hGIPR membranes
T3 construct: whole, on cells; Used as crude membranes of stably transfected CHO cells; also called hGIPR
T3 sequence (looked up): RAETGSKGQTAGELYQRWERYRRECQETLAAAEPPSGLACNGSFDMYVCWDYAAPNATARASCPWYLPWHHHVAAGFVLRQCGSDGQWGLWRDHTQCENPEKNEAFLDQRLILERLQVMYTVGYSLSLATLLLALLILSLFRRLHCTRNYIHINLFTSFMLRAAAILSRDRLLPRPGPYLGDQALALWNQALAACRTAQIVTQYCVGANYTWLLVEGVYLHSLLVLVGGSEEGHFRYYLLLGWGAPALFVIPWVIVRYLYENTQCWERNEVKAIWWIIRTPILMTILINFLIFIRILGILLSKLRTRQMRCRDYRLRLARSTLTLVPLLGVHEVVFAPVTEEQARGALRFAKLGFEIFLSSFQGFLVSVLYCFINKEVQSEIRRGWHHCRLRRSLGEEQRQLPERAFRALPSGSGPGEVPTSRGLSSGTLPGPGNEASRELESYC

T1 sequence (P47871 26-477): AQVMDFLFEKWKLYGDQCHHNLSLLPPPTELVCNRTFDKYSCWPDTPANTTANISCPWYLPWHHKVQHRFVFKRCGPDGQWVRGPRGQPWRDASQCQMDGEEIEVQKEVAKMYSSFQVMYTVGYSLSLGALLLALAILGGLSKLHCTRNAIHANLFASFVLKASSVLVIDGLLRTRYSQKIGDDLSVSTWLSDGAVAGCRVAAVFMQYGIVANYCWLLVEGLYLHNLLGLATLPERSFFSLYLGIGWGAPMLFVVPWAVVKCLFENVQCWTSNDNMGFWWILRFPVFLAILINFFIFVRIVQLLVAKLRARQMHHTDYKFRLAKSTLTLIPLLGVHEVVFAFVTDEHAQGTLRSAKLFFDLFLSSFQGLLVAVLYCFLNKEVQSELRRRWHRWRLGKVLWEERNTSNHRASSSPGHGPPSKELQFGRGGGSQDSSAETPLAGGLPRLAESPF

Binder	Ki (human glucagon receptor)	Ki (human GLP-1 receptor)	Ki (human GIP receptor)
B1	43.3 nM	3.36 nM	0.19 nM
B2	123 nM	3.91 nM	0.0565 nM
B3	192 nM	6.96 nM	0.0497 nM
B4	51.9 nM	3.16 nM	0.177 nM
B5	117 nM	8.1 nM	0.0953 nM
B6	80.1 nM	1.31 nM	0.0469 nM
B7	41.5 nM	4.87 nM	0.0424 nM
[Desaminohistidyl][Aib]EGTFTSDYSILLDKK([AEEA-AEEA-γGlu-C20 diacid])AQ[Aib]AFIEYLIEGGPSSGAPPPS-NH2 (also: reversed amide ψ[NHCO] between residues 1 and 2) [Example 105]	20.4 nM	0.871 nM	0.119 nM
B8	515 nM	1.2 nM	0.179 nM
Y[Aib][cTA]GT[αMeF]TSDYSI[αMeL]LDEK([AEEA-AEEA-γGlu-C20 diacid])AQ[Aib]AFIEYLIEGGPSSGAPPPS-NH2 (reading uncertain) [Example 120]	93.6 nM	11.7 nM	0.11 nM
B9	303 nM	0.867 nM	0.0425 nM
